# Assay: yeast display, Sf9 membrane polyspecificity reagent, FACS + sequencing; frameworks hold sequencing errors
# Method in brief: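 Nanobodies came from a synthetic yeast display library in Saccharomyces cerevisiae BJ5465, induced with galactose for 36–48 hours and stained for 1 hour at 4 °C with 10% biotinylated, detergent-solubilized Sf9 membrane reagent. Cells were enriched on streptavidin microbeads and then FACS-sorted, with low and high (top ~1%) gates set on anti-HA fluorescence for expression and streptavidin fluorescence for reagent binding. Each polyreactivity label reflects the gate a clone came from. Genes were amplified by colony PCR, sequenced by MiSeq 2 × 250 and filtered by CDR length.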
row,Sequence,polyreactivity (PSR sort gate)
1,QVQLVESGGGIVQAGGSLRLSCAASGFTFDIYAMGWYRQAPGTERELVATISFTGDTTSYADSVKGRFTISRDNAKNTVYLQMNSLKPEDTAVYYCAADGSYPLSVGRENLHYAEFDYWGQGTQVTVSS,low polyreactivity
2,QVQLVESGGGIVQAGGSLRLSCAASGFTFDYYAMGWYRQAPGKERELVAAISWRGTTTYYADSVKGRFTISRDNAKNTVYLQMNSLKPEDTAVYYCAADSLFGHYDYWGQGTQVTVSS,low polyreactivity
3,QVQLVESGGGIVQAGGSLRLSCAASGFTFKYYARGWYRQAPGKERELVAAIRGSGAGTYYADSVKGRFTISRDNAKNTGYLQMNSLKPEDTAVYYCNKRWTYKWDDYWGQGTQVTVSS,high polyreactivity
4,QVQLVESGGGIVQAGGSLRLSCAASGFTFSSYAMGWYRQAPGKERELVAAISSGGGSTYYADSVKGRFTISRDNAKNTVYLQMNSLKPEDTAVYYCAASHYYSNGYWGQGTQVTVSS,high polyreactivity
5,QVQLVESGGGIVQAGGSLRLSCAASGFTFWVYAMGWSRQAPGNEWQLVAAISARGGSTYYADSVKVRFTISRDNAKNTVYLQMNSLKPVDTEVYYCAAEPSGKRSKFYYWGHGTQVTVSS,high polyreactivity
6,QVQLVESGGGIVQAGGSLRLSCAASGFTIWKYAMGLYRQAPGKERELVAAISVSGGRTNYADSVKGRFTISGDNAKNTVYLQMNSLKPEDTAVYYCIATPWRPYVGGEYWGQGTHVTVSS,high polyreactivity
7,QVQLVESGGGIVQAGGSLRLSCAASGGTFQRNAMGWYIQAPGKEREFVATITRGGGSTYYADSVKGRFTISRDNAKNTVYFQMNSLKPEDSAVYYCNANTSYYQRYNYWGQGTQVTVSS,high polyreactivity
8,QVQLVESGGGIVQAGGSLRLSCAASGGTFRVNAMVWYRQAPGKEREFVAAISGSGSSTYYADSVKGRFTISRDNAKNTVYLQMNSLKPEDTAVYYCAARSGVGGDNDYWGQGTQVTVSS,low polyreactivity
9,QVQLVESGGGIVQAGGSLRLSCAASGIIFDINSMGWYRQAPGKERELVAAITTSVDSTYYAHSVKGRFTISRDNAKNTVYLQMYSLQPEDTAVYYCSVSFVQFTQYDYWGQGTQVTVSS,low polyreactivity
10,QVQLVESGGGIVQAGGSLRLSCAASGIIFDVYAMGLYRQAPGTERELVAAISKRGGRTYYADSVKWRFTISRDNAKNTVYLQMNSLKPEDTAVYYCAADGQYKHFDYWGQGTQVTVSS,high polyreactivity
11,QVQLVESGGGIVQAGGSLRLSCAASGIIFRFYAMGWYRQAPGKERELVARIRSRGGSTYYADSVKGRFTISRDNAKNTVYLQMNSLKPEDTAVYYCAAGAGYPYYWGQGTQVTVSS,high polyreactivity
12,QVQLVESGGGIVQAGGSLRLSCAASGIIFSANAMGWYRQAPGKERELVAAISRAGSTNYADYVKGRFTISRDNAKNTVYLQMNSLKPEDTAVYYCAAGGGFYFIWTMDYWGQGTQVTVSS,low polyreactivity
13,QVQLVESGGGIVQAGGSLRLSCAASGIIIAVYAMGWYRQAPGKERELVAAISWSSGNTYYADSVKGRFTISRENAKNTVYLQMNSLNPEDTAVYYCAAVSRYKYDYWGQGTQVTVSS,high polyreactivity
14,QVQLVESGGGIVQAGGSLRLSCAASGITFQRNALGWYRQAPGKERELVAAISKSGGSTYYADSVKARFTISRDNAKNTVYLQMNSLKPEDTAVYDCAAPVWRYYRGKTFDFWGQGTQVTVSS,high polyreactivity
15,QVQLVESGGGIVQAGGSLRLSCAASGLIFYNYAMGWYRQAPGKERELVAAITSGGSTYYADSVKGRFTISRDNAKNTVYLQMNSLKPEDTAVYYCAADLTYTVPFDYWGQGTQVTVSS,high polyreactivity
16,QVQLVESGGGIVQAGGSLRLSCAASGLIFYTYAMGWYRQAPGKERELVATISWDVDSTNYADSVKGRFTISRDNAKNTVYLQMNSLKPEDTAGYYCAVDSTFDSYWYWVDYYEYGYWGQGTQVTVSS,high polyreactivity
17,QVQLVESGGGIVQAGGSLRLSCAASGLILANNAMGRYRQAPGKETELVATISSSGGRTSYADSVKGRFTISRDNAKNTVYLQMNSLKPEDTAVYYCAKYCGRYPHGRSWYDYWGQGTQVTVSS,high polyreactivity
18,QVQLVESGGGIVQAGGSLRLSCAASGLNFYWYAMGWYRQAPGKERELVAAITWSGGITYYADSVKGRFTISRDNANNTVYLQMNSLNPEDTAVYYCADDDDYGDVTYDYWGHGTQVTVSS,low polyreactivity
19,QVQLVESGGGIVQAGGSLRLSCAASGLTFPPNAMGWYRPAPGKEREFVAVISSGGGSTYYADSVKGRFTISRDNAKNTVYSQMNSLKPEDTAVYYCATEYQDGDTEYYYWGQGTQVTVSS,low polyreactivity
20,QVQLVESGGGIVQAGGSLRLSCAASGLTFRYYAMGWYRQAPGKERELVAAISGSGGSTYYADSVKGRFTISRDNAKNTVYLQLNRLKPEDTAVYYFASENESSSWGDYAMGYWGQGTQVTVST,high polyreactivity
21,QVQLVESGGGIVQAGGSLRLSCAASGNTFGYYAMGWYRPAPGKERELVASISYSGGSTYADSVKGRFTISRDNAKNTVYLQMNSLKPEDTAVYYCAADYWIYAADSWVLYDSWGQGTQVTVSS,low polyreactivity

row,Sequence,polyreactivity (PSR sort gate)
1,QVQLVESGGGIVQAGGSLRLSCAASGNTFHTYAMGWNRQAPVKERELVAAISSRGVGTYYADSVKGRFTISRDNAKNTVYLQMNSLKPEDTAVYYCAARHHPEYYYWGQGTQVTVSS,high polyreactivity
2,QVQLVESGGGIVQAGGSLRLSCAASGRICIINAMGWYRQATGKERELVAAISTSGGRTYYADSVKGRFTISRDNAKNTVYLQKNSLKPVDTAVYYCNAGRGYRYYRSVGSSPYEYWGQGTQVTVSS,high polyreactivity
3,QVQLVESGGGIVQAGGSLRLSCAASGRIFAFNAMGWYRPAPGKERELVADITSSGVNTYYADSVKGRFTISRDNAINTVYLQMNSLKPEYTAVYYCAARSYLRWWVGMEYWGQGTQVTVSS,low polyreactivity
4,QVQLVESGGGIVQAGGSLRLSCAASGRIFAYYAMGWYRQAPGKERELVAAISSSGGGTYYAYSVKGRFTISRDNAKNTVYLQMTSLKPEDTSVYYCAKRVPRKSSVSHPYDYWGQGTQVTVSS,high polyreactivity
5,QVQLVESGGGIVQAGGSLRLSCAASGRIFFGYAMGWYRQAPGKERELVAAITSGGSTYYADSVKGRFTISRDNAKNTDYLQMYSLKTEDTAVYYCAAVRWYGSKRYGYWGQGTQVTVSS,high polyreactivity
6,QVQLVESGGGIVQAGGSLRLSCAASGRIFPYNAMGWYIQAPGKERELVAAIRWSGGNTYYADSVKGRFTISRDNAKNTVYLQMNSLKPEDNAVYYCAKYRRSFGFDYWGQGTQVTVSS,high polyreactivity
7,QVQLVESGGGIVQAGGSLRLSCAASGRIFRLNAMGWYRQAPGKERELVAAISSRAGSTYYADSVKGRFTISRDNAKNTVYLQMNSLKPEDTAVYYCAARTYSSRLGRDSDYWGQGTQVTVSS,high polyreactivity
8,QVQLVESGGGIVQAGGSLRLSCAASGRIFVPNAMGWYRQAPGKERELVAAITSDGRTNYADSVKGRFTISRDNAKHTVYLQMNSLKPEDTAVYYCNAPVVTFGGYQDDVEYGYWGQGTQVTVSS,low polyreactivity
9,QVQLVESGGGIVQAGGSLRLSCAASGRIFVRNAMGWYRQARGKERELVAAISWSGGTNYADSVKGSFTISRDNAKNTVYLQMNILKPEDTAVYYCAALSVWSYYTYYYWGQGTQVTVSS,high polyreactivity
10,QVQLVESGGGIVQAGGSLRLSCAASGRIFWDYAMGWYRQAPGKERELVDVITLSGDSTYYADSVKGRFTISRDNAKNTVYLQMNSLKPEDTAVYYCAAARAIRQFWYVATFEYWGQGTQVTVSS,low polyreactivity
11,QVQLVESGGGIVQAGGSLRLSCAASGRIFWYNAMGWYRQAPGKERELVAGITRSGGRTYYADCVKGRFTISRDNAKNTVYLQMNSLKPEYTAVYYCAAAPYARRDYEYWGQGTQVTVSS,high polyreactivity
12,QVQLVESGGGIVQAGGSLRLSCAASGRILGANDMGWYRQAPGTERELVAAITSGGRTYYADSVKGRFTISRDNAKNTVYLQMNCLKPEDTAVYYCAVGGWDESVGKGYDYWGQGTQVTVSS,low polyreactivity
13,QVQLVESGGGIVQAGGSLRLSCAASGRILSRYAMGWYRQAPGKESDLVADISSGGRTHYADSVKGRFTISRDNAKNTVYFQMNSLKPEDSAVYYCAKDYTPYSRRLNSGGYYYWGQGTQVTVSS,high polyreactivity
14,QVQLVESGGGIVQAGGSLRLSCAASGRTFKSNAMGWSIQAPGKERELVAAISRSGVRTDYADSVKGRFTISRDNANITVYLQMNSLKPEDTAVYYCADRTWNRRSPYDYWGQGTQVTVSS,high polyreactivity
15,QVQLVESGGGIVQAGGSLRLSCAASGRTFKVNAMGWYIQAPGKEREFVAAITWNSGSSTYYADSVKGRFTISRDNAKNTVYLQMNSLKPEDTAVYYCAARSAGRYWNYYWGQGTQVTVSS,high polyreactivity
16,QVQLVESGGGIVQAGGSLRLSCAASGRTFYGNAMGWYIQEPGKERELVAGISQNGGSTYYADSVKGRFTSSRDTAKNTVYLQMNRLKPEDSAVYYCAADSYYFTGYWAHPYDYWGEGTQVTVSS,high polyreactivity
17,QVQLVESGGGIVQAGGSLRLSCAASGRTFYRNAMGWYIHAPGKERELVAAITSGGSTYYADSVKGRFTISRDNAKNSGYLQMNCLKPEDTAVYYCAALRHALRYDYWGQGTQVTVSS,low polyreactivity
18,QVQLVESGGGIVQAGGSLRLSCAASGRTFYYNAMGWYRQAPGKERELVAAISSSGGSTYYADSVKGRFTISRDNAKNTVYLQMNSLKPEDTAGYYCAASSPGARGGGGYWGQGTQVTVSS,high polyreactivity
19,QVQLVESGGGIVQAGGSLRLSCAASGRTSVVNAMGWYRQAPGKERELVAAITSGGSTHYADSVKGRFTISRDNAKNTVYLQINSLKPEDTAVYYCNARDRRRTNLLDYWGQGSQVTVSS,low polyreactivity
20,QVQLVESGGGIVQAGGSLRLSCAASGSIDWNAKGWYRQAPGKEREFVAAISSSGGRTSYADSVKGRFTISRDNAKNTVYLEMNSLKPEDTAVYYGAAAGSYDGDRYYYWGQGTQVTVSS,high polyreactivity

# From the nanobody polyreactivity screen of Harvey et al. (2022)
